# Laboratory results: patent US20160031945A1 (INDIANA UNIVERSITY RESEARCH AND TECHNOLOGY, published 2016)
# Legend:
# [1] = molecular target: T1, CaV2.2 L1-GST fusion protein (first cytosolic loop of CaV2.2) (rat, UniProt Q02294 356-483); experiment: SPR (BIAcore 3000), immobilized L1-GST
# T1 construct: range 356-483; also called cytosolic loop 1; first intracellular loop; not shown: GST tag of the pGex-3x-Glu vector
# [2] = molecular target: T2, CaV2.2 Ct-dis-GST fusion protein (distal end of the C-terminus of CaV2.2) (rat, UniProt Q02294 2121-2336); experiment: SPR (BIAcore 3000), immobilized Ct-dis-GST
# T2 construct: range 2133-2348; also called distal C-terminus; not shown: GST tag of the pGex-3x-Glu vector
# T2 sequence (Q02294 other isoform, or with tags, fused parts or gaps): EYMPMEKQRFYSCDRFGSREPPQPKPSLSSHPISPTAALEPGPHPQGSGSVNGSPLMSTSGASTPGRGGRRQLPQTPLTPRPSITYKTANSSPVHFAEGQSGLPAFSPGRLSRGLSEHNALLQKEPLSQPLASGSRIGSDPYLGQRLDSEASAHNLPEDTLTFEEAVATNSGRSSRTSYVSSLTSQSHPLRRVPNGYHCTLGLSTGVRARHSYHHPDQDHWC
# T1 sequence (Q02294 other isoform, or with tags, fused parts or gaps): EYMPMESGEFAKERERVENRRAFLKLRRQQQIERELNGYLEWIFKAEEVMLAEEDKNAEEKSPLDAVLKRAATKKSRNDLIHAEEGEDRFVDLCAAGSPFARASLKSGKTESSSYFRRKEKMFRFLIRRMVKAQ
binder,measurement,setting,value
YGRKKRRQRRRWEAKEMLYFEALVIE (also called TAT control; scramble peptide) [TAT-Scramble (modified TAT sequence coupled to a random sequence)],binding result,[1],no binding (tested: 1/3/5 µM)
same,binding result,[2],no binding (tested: 1/3/5 µM)
